From patent US20250295802A1, “HER3 ANTIBODY-DRUG CONJUGATE AND USE THEREOF” (DUALITY BIOLOGICS (SUZHOU) CO., LTD., priority 2022, published 2025)

How the values were obtained:
[1] = molecular target: T1, human HER3-huFc (human, UniProt P21860 20-643); assay: ELISA, 0 days at 40 °C
T1 construct: also called huHER3; not shown: human Fc (huFc)
Method: (§1) Antibody stability test: the purified antibody at 5 mg/mL was stored at 4° C. as regular practice, incubated at 40° C. for 7 days and 14 days for heat stability evaluation, transferred to a glycine solution at pH 3.5 for regeneration, and stored for 2, 4 and 6 h for acid stability evaluation, or subjected to repeated freeze-thaw treatments for 4 or 6 cycles for freeze-thaw stability evaluation. Aggregation was measured by SEC-HPLC, and binding affinity was determined by ELISA.
(§2) The chimeric antibody 3F8 was subjected to parallel assay.

[2] = molecular target: T1, human HER3-huFc; assay: ELISA after 7 days at 40 °C
Method: as §1, §2

[3] = molecular target: T1, human HER3-huFc; assay: ELISA, 0 freeze-thaw cycles
[4] = molecular target: T1, human HER3-huFc; assay: ELISA after 14 days at 40 °C
Method: as §1, §2

[5] = molecular target: T1, human HER3-huFc; assay: ELISA after 3 freeze-thaw cycles
[6] = molecular target: T1, human HER3-huFc; assay: ELISA after 5 freeze-thaw cycles
[7] = molecular target: T1, human HER3-huFc; assay: ELISA after 2 h of incubation at pH 3.5
Method: as §1
(§3) EC50 was determined by ELISA.

[8] = molecular target: T1, human HER3-huFc; assay: ELISA after 4 h of incubation at pH 3.5
Method: as §1, §3

[9] = molecular target: T1, human HER3-huFc; assay: ELISA after 6 h of incubation at pH 3.5
Method: as §1, §3

[10] = molecular target: T2, His-HER3 (UniProt P21860 20-643, limits assumed); assay: SPR, Biacore T200, antibody captured on protein A chip, His-HER3 as analyte
T2 construct: Analyte of the Biacore assay; not shown: His tag
Method: Affinity assay by surface plasmon resonance (SPR): antibody kinetics and affinity were determined using Biacore T200. Briefly, the recombinant human HER3 antibody was immobilized on a protein A chip (GE, Cat. 29-1275-5).
The binding affinity of humanized 3F8 (hu3F8) and chimeric 3F8. Binding kinetics of 3 humanized 3F8 clones and chimeric 3F8 were determined by Biacore. Three humanized 3F8 clones (clone 1, clone 2 and clone 3) had different heavy chains and one identical light chain. Clone 1, clone 2, and clone 3 corresponded to hu3F8-1, hu3F8-2, and hu3F8-3, respectively.

[11] = molecular target: T1, human HER3-huFc; assay: ELISA after 0 h of incubation at pH 3.5; 0 h of incubation at pH 3.5 (untreated time point)
Method: as §1, §3

EC50 [1]: 0.0392 µg/mL
EC50 [2]: 0.0423 µg/mL
EC50 [3]: 0.0454 µg/mL
EC50 [4]: 0.041 µg/mL
EC50 [5]: 0.0443 µg/mL
EC50 [6]: 0.0386 µg/mL
EC50 [7]: 0.0381 µg/mL
EC50 [8]: 0.0409 µg/mL
EC50 [9]: 0.039 µg/mL
Kd [10]: 1.09 nM
koff [10]: 0.000612 s⁻¹
kon [10]: 560000 M⁻¹ s⁻¹
EC50 [11]: 0.0387 µg/mL
B1: humanized 3F8 antibody hu3F8-1 (antibody, human IgG1, kappa, V domains shown)
VH: QVQLQESGPGLVKPSETLSLTCTVSGYSITSAYYWNWIRQPPGKGLEWIGYISYDGRNNFNPSLKNRVTISVDTSKNQFSLKLSSVTAADTAVYYCARDGDYDYFDYWGQGTTVTVSS
VL: DIQMTQSPSSLSASVGDRVTITCRASQDISNYLNWYQQKPGKAPKLLIYYTSILHSGVPSRFSGSGSGTDYTFTISSLQPEDIATYFCQQGDTLPPTFGGGTKLEIKR
notes: also called Clone 1; clone-1
